Experimental data reported in the supplement of paper PMC7125110.
± gives the standard error. Variants at the floor of the assay were thinned out.

B1: glmS ribozyme (parent)
chain: AUAAAAGCGCCAGAACUACAGAAAUGUAGUUGACGAGGAGGAGGUUUAUCGAAUUUUCGGCGGAUGCCUCCAAA

Assays:
Conditions in all cases: with glucosamine-6-phosphate
[1] = variants of: B1; experiment: self-cleavage kobs at 160 uM GlcN6P; higher = faster cleavage; RNA array
How it was run: (§1)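 Glucosamine-6-phosphate (40 μM to 10 mM) in HEPES/KCl/Mg(OAc)2 buffer was flowed over sequenced MiSeq chips, and tiles were imaged over ~14 h. Barcoded ribozyme variants there had been transcribed in situ by E. coli RNA polymerase and were tracked through a hybridised Cy3 probe at 37 °C. One- or two-exponential decay fits to per-tile medians, normalised to baseline and to non-cleaving reference variants, gave kobs. kcat and KM came from weighted Michaelis–Menten fits across concentrations.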

[2] = variants of: B1; experiment: self-cleavage kobs at 640 uM GlcN6P; higher = faster cleavage; RNA array
How it was run: as §1

[3] = variants of: B1; experiment: self-cleavage kobs at 2500 uM GlcN6P; higher = faster cleavage; RNA array
How it was run: as §1

[4] = variants of: B1; experiment: self-cleavage kobs at 10000 uM GlcN6P; higher = faster cleavage; RNA array
How it was run: as §1

Row | Variant | self-cleavage kobs at 160 uM GlcN6P [1] | self-cleavage kobs at 640 uM GlcN6P [2] | self-cleavage kobs at 2500 uM GlcN6P [3] | self-cleavage kobs at 10000 uM GlcN6P [4]
1 | G7U A14U U55C C70U | < 1e-05 s⁻¹ |  |  | 
2 | G7U A12U U56G | < 1e-05 s⁻¹ | < 1e-05 s⁻¹ |  | 
3 | G7C C58A | < 1e-05 s⁻¹ | < 1e-05 s⁻¹ | < 1e-05 s⁻¹ | < 1e-05 s⁻¹
4 | C11A A12U | 7.68e-05 ± 1.8e-05 s⁻¹ | 0.000339 ± 6e-05 s⁻¹ | 0.000539 ± 7.7e-05 s⁻¹ | 0.00156 ± 0.00028 s⁻¹
5 | C10G U57C | < 1e-05 s⁻¹ | < 1e-05 s⁻¹ | < 1e-05 s⁻¹ | < 1e-05 s⁻¹
6 | G7U G51U | < 1e-05 s⁻¹ | < 1e-05 s⁻¹ | < 1e-05 s⁻¹ | < 1e-05 s⁻¹
7 | C11U A15G C68U | 4.79e-05 ± 2.4e-05 s⁻¹ | 9.88e-05 ± 2.1e-05 s⁻¹ | 0.000318 ± 8.7e-05 s⁻¹ | 
8 | C11A G41U C58U | < 1e-05 s⁻¹ | < 1e-05 s⁻¹ |  | 
9 | G9U G13U G32A U47A G62A | < 1e-05 s⁻¹ |  |  | 
10 | C8G A14G C34G | < 1e-05 s⁻¹ | < 1e-05 s⁻¹ | < 1e-05 s⁻¹ | 
11 | C8A G51U | < 1e-05 s⁻¹ | < 1e-05 s⁻¹ |  | 
12 | G9U A33C | < 1e-05 s⁻¹ | < 1e-05 s⁻¹ | < 1e-05 s⁻¹ | < 1e-05 s⁻¹
13 | C8A C61U A64C C67U | < 1e-05 s⁻¹ | < 1e-05 s⁻¹ | < 1e-05 s⁻¹ | 
14 | G7C C8G U30C | < 1e-05 s⁻¹ | < 1e-05 s⁻¹ |  | 
15 | G9U G37U C50U C67U | < 1e-05 s⁻¹ |  |  | 
16 | G7U C16G U30G G59A U69G | < 1e-05 s⁻¹ |  |  | 
17 | C11A G38C A42C | < 1e-05 s⁻¹ |  | < 1e-05 s⁻¹ | 
18 | G9U C16U U57G C68U | < 1e-05 s⁻¹ | < 1e-05 s⁻¹ |  | 
19 | C11G G29A G37U | < 1e-05 s⁻¹ | < 1e-05 s⁻¹ |  | 
20 | G9C G29U C50G C70G | 0.000652 ± 0.00019 s⁻¹ | 0.000131 ± 4.2e-05 s⁻¹ | 0.000253 ± 9.9e-05 s⁻¹ | 
21 | C11U U31C A39U A52C A64G | < 1e-05 s⁻¹ |  | < 1e-05 s⁻¹ | 
22 | C10U C34G | < 1e-05 s⁻¹ | < 1e-05 s⁻¹ | < 1e-05 s⁻¹ | < 1e-05 s⁻¹
23 | C8G G37U G51U | < 1e-05 s⁻¹ | < 1e-05 s⁻¹ |  | 
24 | C8U G41C G62U C68U | < 1e-05 s⁻¹ | < 1e-05 s⁻¹ | < 1e-05 s⁻¹ | 
25 | C8G G62C | < 1e-05 s⁻¹ |  |  | 3.7e-05 ± 8.1e-06 s⁻¹
26 | G7U G38A G40A G62A | < 1e-05 s⁻¹ | < 1e-05 s⁻¹ | < 1e-05 s⁻¹ | 

Row | Variant | self-cleavage kobs at 160 uM GlcN6P [1] | self-cleavage kobs at 640 uM GlcN6P [2] | self-cleavage kobs at 2500 uM GlcN6P [3] | self-cleavage kobs at 10000 uM GlcN6P [4]
27 | C8U A33G C34G A36U U65C | < 1e-05 s⁻¹ |  | < 1e-05 s⁻¹ | 
28 | C10A A14C G37C G44U C61U | < 1e-05 s⁻¹ |  |  | 
29 | G9U C58G G63U | < 1e-05 s⁻¹ |  | < 1e-05 s⁻¹ | < 1e-05 s⁻¹
30 | C11U G37C A39U U47G | < 1e-05 s⁻¹ |  |  | 
31 | C10A A33C G40C C70U | < 1e-05 s⁻¹ | < 1e-05 s⁻¹ |  | 
32 | C10G C11U G13C A36C G43C | < 1e-05 s⁻¹ | < 1e-05 s⁻¹ | < 1e-05 s⁻¹ | 
33 | C10U C34U G38C A39U | < 1e-05 s⁻¹ |  |  | 
34 | C11U G43U A48G C71G | < 1e-05 s⁻¹ | < 1e-05 s⁻¹ | < 1e-05 s⁻¹ | 
35 | C8U U56G | < 1e-05 s⁻¹ | < 1e-05 s⁻¹ | < 1e-05 s⁻¹ | 
36 | C10A U30A G35U G43U | < 1e-05 s⁻¹ |  |  | 
37 | A12C A39G C70U | 0.000758 ± 0.00028 s⁻¹ |  |  | 
38 | C10A U45C | < 1e-05 s⁻¹ | < 1e-05 s⁻¹ | < 1e-05 s⁻¹ | < 1e-05 s⁻¹
39 | C11A G43C C61G | < 1e-05 s⁻¹ | < 1e-05 s⁻¹ | < 1e-05 s⁻¹ | 
40 | C8A U57C | < 1e-05 s⁻¹ | < 1e-05 s⁻¹ | < 1e-05 s⁻¹ | 
41 | C10G A36C | < 1e-05 s⁻¹ | < 1e-05 s⁻¹ | < 1e-05 s⁻¹ | 
42 | C10G G32A A33G C61A G63A | 0.00144 ± 0.00069 s⁻¹ |  |  | 
43 | C11A G29A C34A U57C | < 1e-05 s⁻¹ | < 1e-05 s⁻¹ |  | 
44 | C10G C11G G37C A53G | < 1e-05 s⁻¹ |  | < 1e-05 s⁻¹ | 
45 | G7U G13U | < 1e-05 s⁻¹ |  | < 1e-05 s⁻¹ | < 1e-05 s⁻¹
46 | A12C A15U U55G C67U | 4.96e-05 ± 2.1e-05 s⁻¹ | 0.0001 ± 2.8e-05 s⁻¹ | 0.000447 ± 0.00013 s⁻¹ | 
47 | C10A C16A U47C U65C | < 1e-05 s⁻¹ | < 1e-05 s⁻¹ |  | 
48 | C10U G44A U57C G62A | < 1e-05 s⁻¹ | < 1e-05 s⁻¹ |  | 
49 | G7C C10G U45C | < 1e-05 s⁻¹ |  |  | 
50 | C11G A33U G44U U49A U65G | < 1e-05 s⁻¹ | < 1e-05 s⁻¹ | < 1e-05 s⁻¹ | 
51 | G9U A14U U47A | < 1e-05 s⁻¹ | < 1e-05 s⁻¹ | < 1e-05 s⁻¹ | 
52 | G9U A12G U54G | < 1e-05 s⁻¹ |  |  | 
